From the supplement of paper PMC6757056
± gives the standard deviation of the averaged measurements.

B1: library; a variant is named by its letters at N, in order (parent)
chain: GCUGUCACCGGUGCUUGGUACGUUAUAUUCAGCCGGUCUGAUGAGUCUNNNNNNAGACGAAACAGC

Key:
[1] = variants of: B1; test: normalized RNA/DNA level without ligand (relative to sTRSVctl = 100) (log10 (% of sTRSVctl)); HEK293T overexpressing SLC46A1; higher = less ribozyme self-cleavage, higher mRNA level; details: without (6R,S)-folinic acid; ligand present: no
Outline: (§1)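 Ribozyme switch library plasmids linked to reporters were introduced into HEK293T cells at 4 µg per 6-well well, with ligand, if any, added 1 h before. Total RNA was extracted with EDTA 72 h later, reverse-transcribed, amplified, barcoded and sequenced. RNA level was computed from RNA over DNA reads relative to a spiked-in non-cleaving sequence or the top sequences, then scaled and log-transformed. The top set was 25 sequences, values were ×100 and log10, and the cutoff was ≥100 DNA reads.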

[2] = variants of: B1; test: normalized RNA/DNA level with ligand (relative to sTRSVctl = 100) (log10 (% of sTRSVctl)); HEK293T overexpressing SLC46A1; ligand concentration (+) RNA-Seq: 6 mM; higher = less ribozyme self-cleavage, higher mRNA level; details: with (6R,S)-folinic acid; ligand present: yes
Outline: as §1

| Variant | normalized RNA/DNA level without ligand (log10) [1] | normalized RNA/DNA level with ligand (log10) [2] |
| --- | --- | --- |
| GCUGUCACCGGUGCUUGGUACGUUAUAUUCAGCCGGUCUGAUGAGUCUAAGUUCAGACGAAACAGC [AAGUUC] | 2.031 ± 0.017 | 2.02 ± 0.054 |
| GCUGUCACCGGUGCUUGGUACGUUAUAUUCAGCCGGUCUGAUGAGUCUAAGUUUAGACGAAACAGC [AAGUUU] | 2.009 ± 0.017 | 2.01 ± 0.033 |
| GCUGUCACCGGUGCUUGGUACGUUAUAUUCAGCCGGUCUGAUGAGUCUUAGUGAAGACGAAACAGC [UAGUGA] | 1.8778 ± 0.0018 | 2 ± 0.025 |
| GCUGUCACCGGUGCUUGGUACGUUAUAUUCAGCCGGUCUGAUGAGUCUUAGUGUAGACGAAACAGC [UAGUGU] | 1.901 ± 0.008 | 1.99 ± 0.0065 |
| GCUGUCACCGGUGCUUGGUACGUUAUAUUCAGCCGGUCUGAUGAGUCUAAUACAAGACGAAACAGC [AAUACA] | 1.998 ± 0.014 | 1.995 ± 0.015 |
| GCUGUCACCGGUGCUUGGUACGUUAUAUUCAGCCGGUCUGAUGAGUCUAAUACGAGACGAAACAGC [AAUACG] | 1.934 ± 0.0037 | 1.99 ± 0.056 |
| GCUGUCACCGGUGCUUGGUACGUUAUAUUCAGCCGGUCUGAUGAGUCUGAUAAGAGACGAAACAGC [GAUAAG] | 1.917 ± 0.0057 | 2 ± 0.033 |
| GCUGUCACCGGUGCUUGGUACGUUAUAUUCAGCCGGUCUGAUGAGUCUUAGUUUAGACGAAACAGC [UAGUUU] | 2.01 ± 0.0059 | 2.02 ± 0.033 |
| GCUGUCACCGGUGCUUGGUACGUUAUAUUCAGCCGGUCUGAUGAGUCUUAGUUCAGACGAAACAGC [UAGUUC] | 2.0145 ± 0.00068 | 2.03 ± 0.027 |
| GCUGUCACCGGUGCUUGGUACGUUAUAUUCAGCCGGUCUGAUGAGUCUUAGUUAAGACGAAACAGC [UAGUUA] | 1.932 ± 0.015 | 1.984 ± 0.0094 |
| GCUGUCACCGGUGCUUGGUACGUUAUAUUCAGCCGGUCUGAUGAGUCUGAUACUAGACGAAACAGC [GAUACU] | 2.001 ± 0.0036 | 2.01 ± 0.036 |
| GCUGUCACCGGUGCUUGGUACGUUAUAUUCAGCCGGUCUGAUGAGUCUGAUACCAGACGAAACAGC [GAUACC] | 2.003 ± 0.0086 | 2.026 ± 0.0083 |
| GCUGUCACCGGUGCUUGGUACGUUAUAUUCAGCCGGUCUGAUGAGUCUGAGUUUAGACGAAACAGC [GAGUUU] | 2 ± 0.02 | 2.01 ± 0.037 |
| GCUGUCACCGGUGCUUGGUACGUUAUAUUCAGCCGGUCUGAUGAGUCUGAGUUAAGACGAAACAGC [GAGUUA] | 2.008 ± 0.0034 | 2.03 ± 0.022 |
| GCUGUCACCGGUGCUUGGUACGUUAUAUUCAGCCGGUCUGAUGAGUCUGAGUUCAGACGAAACAGC [GAGUUC] | 2.013 ± 0.02 | 2.025 ± 0.014 |
| GCUGUCACCGGUGCUUGGUACGUUAUAUUCAGCCGGUCUGAUGAGUCUUAUACAAGACGAAACAGC [UAUACA] | 1.965 ± 0.003 | 2.01 ± 0.05 |
| GCUGUCACCGGUGCUUGGUACGUUAUAUUCAGCCGGUCUGAUGAGUCUAAGUGCAGACGAAACAGC [AAGUGC] | 1.984 ± 0.0023 | 2.01 ± 0.052 |
| GCUGUCACCGGUGCUUGGUACGUUAUAUUCAGCCGGUCUGAUGAGUCUAAGUGGAGACGAAACAGC [AAGUGG] | 1.87 ± 0.01 | 2.02 ± 0.041 |
| GCUGUCACCGGUGCUUGGUACGUUAUAUUCAGCCGGUCUGAUGAGUCUCAUAAGAGACGAAACAGC [CAUAAG] | 1.95 ± 0.035 | 2.03 ± 0.035 |
| GCUGUCACCGGUGCUUGGUACGUUAUAUUCAGCCGGUCUGAUGAGUCUGAGUCGAGACGAAACAGC [GAGUCG] | 1.984 ± 0.019 | 2 ± 0.034 |
| GCUGUCACCGGUGCUUGGUACGUUAUAUUCAGCCGGUCUGAUGAGUCUGAGUCUAGACGAAACAGC [GAGUCU] | 2.0246 ± 0.001 | 2.02 ± 0.027 |
